Test system: mucin
Assay: Viscosity increasing effect by interaction with mucin (rotatory viscometer)
Assay type: physicochemical
Conditions: for rate of increase in viscosity (increase in value of viscosity divided by viscosity of sample 3): 1.0 w/v % mixed with 20 w/v % mucin solution (final concentration 0.5 w/v %)
Experimental: In general, with respect to a film of a lubricant formed on a friction surface for reducing friction under the maintained state of fluid friction, the higher the viscosity of the lubricant, the higher the stability of the film of the lubricant. Therefore, the friction reducing effect of the cinnamic acid derivative was evaluated using, as an index, the increase in viscosity due to the interaction of the derivative with mucin contained in the tear fluid.
HA-3APC prepared in Example 1 was dissolved in PBS (pH 7.4) to thereby prepare solutions having concentrations of 1 w/v %, 0.5 w/v % and 0.25 w/v %.
Similarly, HA was dissolved in PBS (pH 7.4) to thereby prepare an HA solution having a concentration of 1 w/v %.
0.4 mL of each of these samples (1 w/v % HA-3APC, 0.5 w/v % HA-3APC, 0.25 w/v % HA-3APC and 1 w/v % HA) having added thereto 0.4 mL of 20 w/v % mucin was sample 1 for measurement.
A sample of 0.4 mL of 20 w/v % mucin having added thereto 0.4 mL of PBS was sample 2 for measurement.
A sample prepared in substantially the same manner as in sample 1 for measurement except that 0.4 mL of PBS was added in place of mucin was sample 3 for measurement.
Each sample for measurement was subjected, immediately after thorough mixing, to measurement of viscosity (shear rate: 100 S^−1, temperature: 35° C.) using a rotatory viscometer (ADVANCED RHEOMETER (TA Instruments)), and increase in value of viscosity was obtained by the following formula.
Increase in value of viscosity=μ1−μ2−μ3
μ1: Viscosity of sample 1 for measurement
μ2: Viscosity of sample 2 for measurement
μ3: Viscosity of sample 3 for measurement
Comparison of the strength of the interaction with mucin was carried out between HA and HA-3APC based on the standardized rate of increase in viscosity obtained by dividing the increase in value of viscosity with the viscosity of sample 3 for measurement. Such a means for standardization is frequently used in comparison of interactions with mucin among different test substances (for example, J. Ocul Pharmacol Ther. 2007.23(6): 541-50).

Substance | increase in value of viscosity (strength of interaction with mucin) (0.25, 0.5 and 1.0 w/v % mixed with 20 w/v % mucin (final 0.125, 0.25, 0.5 w/v %), shear rate 100 S^-1, 35° C.) | rate of increase in viscosity relative to that of HA (1.0 w/v % (final concentration 0.5 w/v %) with 20 w/v % mucin) | rate of increase in viscosity (increase in value of viscosity divided by viscosity of sample 3) (shear rate 100 S^-1, 35° C.)
HA having covalently bonded thereto a cinnamic acid aminopropyl ester [HA-3APC] | increased depending on the concentration | about 1.5 times | 3.65
hyaluronic acid [HA, reference compound] | – | – | 2.49

From patent US20200121712A1, “AGENT TO BE APPLIED TO OPHTHALMIC DEVICE” (SEIKAGAKU CORPORATION, priority 2015, published 2020)
